Assay [1] deals with T1, Duffy antigen receptor for chemokines (DARC) on Duffy-positive human erythrocytes (human, UniProt Q16570 1-336).
T1 construct: whole, on cells; also called Duffy blood group antigen; Duffy antigen surface receptor
T1 sequence: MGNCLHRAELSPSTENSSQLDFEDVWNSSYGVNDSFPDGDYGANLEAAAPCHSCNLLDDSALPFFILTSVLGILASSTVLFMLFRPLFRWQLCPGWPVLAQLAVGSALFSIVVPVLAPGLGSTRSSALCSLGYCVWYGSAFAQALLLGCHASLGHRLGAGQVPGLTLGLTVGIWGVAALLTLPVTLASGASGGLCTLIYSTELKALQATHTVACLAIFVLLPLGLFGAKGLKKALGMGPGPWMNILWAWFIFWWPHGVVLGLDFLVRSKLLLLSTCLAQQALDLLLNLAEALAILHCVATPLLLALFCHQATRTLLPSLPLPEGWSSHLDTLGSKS
Nature of the assay: erythrocyte binding assay, Western blot.

Assay [2] addresses T1, Duffy antigen receptor for chemokines …. Kind of assay: COS7 erythrocyte-binding assay (rosettes).

The text below walks through data of patent publication US9120869 (UNIVERSITY OF SOUTH FLORIDA A FLORIDA NON PROFIT, dated 2015).

B1: recombinant DBPII-Sal1 (refolded ligand domain, region II, of Plasmodium vivax Duffy binding protein, Sal1 variant) (ligand)
chain: NHAFLQNTVMKNCNYKRKRRERDWDCNTKKDVCIPDRRYQLCMKELTNLVNNTDTNFHRDITFRKLYLKRKLIYDAAVEGDLLLKLNNYRYNKDFCKDIRWSLGDFGDIIMGTDMEGIGYSKVVENNLRSIFGTDEKAQQRRKQWWNESKAQIWTAMMYSVKKRLKGNFIWICKLNVAVNIEPQIYRWIREWGRDYVSELPTEVQKLKEKCDGKINYTDKKVCKVPPCQNACKSYDQWITRKKNQWDVLSNKFISVKNAEKVQTAGIVTPYDILKQELDEFNEVAFENEINKRDGAYIEL
notes: also called recombinant Sal1; rSal1; not shown: C-terminal histidine tag from pET21a+
Turning to B1, the binding result in assay [1] is on record as “binds”.

B2: COS7-expressed PvDBP-RII variant Sal 1 (ligand)
chain: B1 chain
notes: The (mut) plasmid differs from (original) by a PvuII to EcoRI site change; also called DBPII-Sal1 expressed on surface of COS7 cells; pEGFP-Sal 1 (original); not shown: C-terminal GFP tag (pEGFP-N1)
For B2, the binding result in assay [2] is “binds”.
